Tests used:
[1] = target: Orai1 peptide (first extracellular domain) (UniProt Q96D31); experiment: ELONA; conditions: 0.1 ug/well aptamer; lowest of six; value from stated range; SHCMK: 20 mM Hepes pH 7.35, 120 mM KCl, 1 mM CaCl2, 1 mM MgCl2; 37 C, 3 h (2 h for Kd); peptide-coated plates, wash with 0.05% Tween …
[2] = target: T1, Orai1 peptide (first extracellular domain) (UniProt Q96D31); experiment: ELONA; SHCMK: 20 mM Hepes pH 7.35, 120 mM KCl, 1 mM CaCl2, 1 mM MgCl2; 37 C, 3 h (2 h for Kd); peptide-coated plates, wash with 0.05% Tween 20; conditions: tags: none stated; coated on polystyrene plate; label: biotin
T1 chain: DADHDYPPGLL

Molecule	binding signal [1] [OD450]	binding result [2]
TGCGAGCATCTCGCTATCAGAGTGAGGTGATTTGTGCATA [Aptamer Y8]	1.18	
TCAAGCTTATGACCGAGCGCCGCGTGCC (ssDNA) [ONT1]		no binding
TAGGATCCCCAGACCTGCCCGCCATGT (ssDNA) [ONT2]		no binding
GGTACCGCAGAATTGGGAAGAGATAGA (ssDNA) [ONT3]		no binding
